# Experimental data reported in patent US20250243261A1 (CZ BIOHUB SF, published 2025).
# Read-outs that look alike come from different tables or passages of the source.
# Key:
# [1] = molecular target: T1, Ebola GP ectodomain (Mayinga, Zaire, 1976) with the mucin-like domain deleted (Zaire ebolavirus (Mayinga, 1976), UniProt Q05320 33-650); test: BLI, IgG
# [2] = molecular target: T1, Ebola GP ectodomain (Mayinga, Zaire, …); test: BLI, Fab
# [3] = molecular target: T1, Ebola GP ectodomain (Mayinga, Zaire, …); test: BLI, Fab; remark: listed apart in the source
# [4] = molecular target: T1, Ebola GP ectodomain (Mayinga, Zaire, …)
# [5] = molecular target: T1, Ebola GP ectodomain (Mayinga, Zaire, …); remark: listed apart in the source
binder,measurement,setting,value
"mAb114 UCA WT IgG (antibody, V domains shown) VH: EVQLVESGGGLVQPGGSLRLSCAASGFTFSSYDMHWVRQATGKGLEWVSAIGTAGDTYYPGSVKGRFTISRENAKNSLYLQMNSLRAGDTAVYYCVRSDRGVAGLFDSWGQGTLVTVSS VL: DIQMTQSPSSLSASVGDRVTITCRASQGISNYLAWYQQKPGKVPKLLIYAASTLQSGVPSRFSGSGSGTDFTLTISSLQPEDVATYYCQKYNSAPLTFGGGTKVEIK",Kd,[1],400 nM
"mAb114 UCA WT Fab (Fab, V domains shown) VH: EVQLVESGGGLVQPGGSLRLSCAASGFTFSSYDMHWVRQATGKGLEWVSAIGTAGDTYYPGSVKGRFTISRENAKNSLYLQMNSLRAGDTAVYYCVRSDRGVAGLFDSWGQGTLVTVSS VL: DIQMTQSPSSLSASVGDRVTITCRASQGISNYLAWYQQKPGKVPKLLIYAASTLQSGVPSRFSGSGSGTDFTLTISSLQPEDVATYYCQKYNSAPLTFGGGTKVEIK",Kd,[2],75000 nM
"mAb114 WT Fab (Fab, V domains shown) VH: EVQLVESGGGLIQPGGSLRLSCAASGFALRMYDMHWVRQTIDKRLEWVSAVGPSGDTYYADSVKGRFAVSRENAKNSLSLQMNSLTAGDTAIYYCVRSDRGVAGLFDSWGQGILVTVSS VL: DIQMTQSPSSLSASVGDRITITCRASQAFDNYVAWYQQRPGKVPKLLISAASALHAGVPSRFSGSGSGTHFTLTISSLQPEDVATYYCQNYNSAPLTFGGGTKVEIK",Kd,[3],0.17 nM
"mAb114 VH D42G-A68T-S79Y / VL V43A Fab (Fab, V domains shown) VH: EVQLVESGGGLIQPGGSLRLSCAASGFALRMYDMHWVRQTIGKRLEWVSAVGPSGDTYYADSVKGRFTVSRENAKNSLYLQMNSLTAGDTAIYYCVRSDRGVAGLFDSWGQGILVTVSS VL: DIQMTQSPSSLSASVGDRITITCRASQAFDNYVAWYQQRPGKAPKLLISAASALHAGVPSRFSGSGSGTHFTLTISSLQPEDVATYYCQNYNSAPLTFGGGTKVEIK",fold improvement in Kd vs wildtype,[4],3 fold
same,Kd,[5],0.06 nM
